According to US20100316616A1:

Biological target: His-tagged mouse Wnt3a (mouse) (UniProt P27467)
Experiment: cell-based or functional assay

Sequence of UniProt P27467 (P27467 19-352): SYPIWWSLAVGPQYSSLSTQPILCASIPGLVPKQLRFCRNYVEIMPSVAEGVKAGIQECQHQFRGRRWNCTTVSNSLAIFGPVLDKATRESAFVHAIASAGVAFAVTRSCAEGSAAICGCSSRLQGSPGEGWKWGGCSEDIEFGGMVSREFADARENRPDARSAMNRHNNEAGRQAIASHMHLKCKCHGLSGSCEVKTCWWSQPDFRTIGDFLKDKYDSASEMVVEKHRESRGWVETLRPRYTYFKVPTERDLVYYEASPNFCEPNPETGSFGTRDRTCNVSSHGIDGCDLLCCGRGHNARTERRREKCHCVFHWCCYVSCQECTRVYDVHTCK

With “human FZC18 (from UniProt P39060 216-450)” the decrease in Wnt3a-induced CRT (beta-catenin-TCF-regulated transcription), TCF-responsive reporter in HEK293T and Huh-7 cells was over 80%.
Substance “human V3Nter (from UniProt P39060 24-497)” has a decrease in Wnt3a-induced CRT (beta-catenin-TCF-regulated transcription), TCF-responsive reporter in HEK293T and Huh-7 cells of over 80%.
